In assay [1] the target is T1, human PD-L1 coupled to human Fc (human, UniProt Q9NZQ7 19-239, limits assumed).
T1 construct: also called human PD-L1-Fc; not shown: human Fc
The assay can be described thus: SPR, Proteon XPR36, human PD-L1-Fc immobilised, crude H12 Fab extract flown over. A general note: In SPR one partner is held on a chip, and binding of the other changes the refractive index at the surface.

For assay [2], the target named is T2, biotinylated human PD-L1 (human, UniProt Q9NZQ7 19-238, limits assumed, biotinylated (site not stated)). Put plainly: blocking ELISA: biotinylated human PD-L1 pre-incubated with Fab, then added to coated human PD-1-Fc (blocked partner), streptavidin-HRP. On the technique in general: In an ELISA, binding on a coated surface is turned into a signal by an enzyme label.
T2 sequence (Q9NZQ7 19-238 limits assumed): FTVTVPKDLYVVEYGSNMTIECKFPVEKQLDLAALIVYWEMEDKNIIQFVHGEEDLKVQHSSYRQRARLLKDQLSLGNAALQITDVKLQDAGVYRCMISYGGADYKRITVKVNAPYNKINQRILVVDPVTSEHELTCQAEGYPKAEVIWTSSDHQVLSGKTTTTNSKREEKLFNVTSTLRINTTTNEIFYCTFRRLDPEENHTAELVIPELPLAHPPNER

In assay [3] the target is T3, murine PD-L1 coupled to human Fc (murine, UniProt Q9EP73 19-238, limits assumed).
T3 construct: also called murine PD-L1-Fc; mouse PD-L1 coupled to Fc; not shown: human Fc
T3 sequence (Q9EP73 19-238 limits assumed): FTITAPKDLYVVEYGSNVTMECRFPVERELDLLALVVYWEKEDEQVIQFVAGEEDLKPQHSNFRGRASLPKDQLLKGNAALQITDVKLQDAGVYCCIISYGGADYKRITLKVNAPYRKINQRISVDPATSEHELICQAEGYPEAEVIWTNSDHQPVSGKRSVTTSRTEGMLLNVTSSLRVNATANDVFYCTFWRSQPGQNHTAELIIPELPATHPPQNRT
The assay can be described thus: SPR (Proteon XPR36), mouse PD-L1-Fc immobilised, crude H12 Fab extract flowed.

For assay [4], the target named is T3, murine PD-L1 coupled to human Fc. The assay can be described thus: SPR, Proteon XPR36, murine PD-L1-Fc immobilised, crude H12 Fab extract flown over.
In assay [5] the target is T1, human PD-L1 coupled to human Fc. The assay can be described thus: SPR (Proteon XPR36), human PD-L1-Fc immobilised, crude H12 Fab extract flowed.
Assay [6] addresses biotinylated murine PD-L1 (murine, UniProt Q9EP73 19-238, limits assumed, biotinylated (site not stated)). The assay can be described thus: blocking ELISA: biotinylated murine PD-L1 pre-incubated with Fab, then added to coated murine PD-1-Fc (blocked partner), streptavidin-HRP.
Assay [7] addresses T4, human PD-1 (ELISA antigen of Example 8) (human, UniProt Q15116 25-167, limits assumed).
T4 construct: also called hu PD-1
Put plainly: ELISA on coated antigen (sheet label huPD-1-Fc).

Assay [8] has as its target T2, biotinylated human PD-L1. Put plainly: ELISA: antibody coated at 2 ug/mL, biotinylated human PD-L1 titrated (x axis Human PD-L1, nM), streptavidin-HRP. As to the method:
Binding was measured by ELISA. Antibodies were coated onto maxisorp plates at 2 μg/mL in coating buffer and incubated overnight at 4° C. The next day, plates were washed with wash buffer (PBS+0.05% Tween-20), and blocker with casein for 1 hour, at room temperature. Plates were then washed again using wash buffer. […] Plates were then washed again using wash buffer. […] Plates were then washed again using wash buffer. Finally, TMB was added to develop the ELISA; TMB conversion by HRP was stopped using 1M H-Cl.

In assay [9] the target is T5, human CTLA-4 (human, UniProt P16410 36-162, limits assumed).
T5 construct: also called hu CTL-A4
T5 sequence (P16410 36-162 limits assumed): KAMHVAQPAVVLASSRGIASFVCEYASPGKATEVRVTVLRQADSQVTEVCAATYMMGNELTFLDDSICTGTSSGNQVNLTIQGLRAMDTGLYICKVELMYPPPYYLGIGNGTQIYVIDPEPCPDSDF
The assay can be described thus: ELISA on coated antigen (sheet label huCTL-A4).

In assay [10] the target is T6, human BTLA (human, UniProt Q7Z6A9 31-151, limits assumed).
T6 construct: also called hu BLTA
T6 sequence (Q7Z6A9 31-151 limits assumed): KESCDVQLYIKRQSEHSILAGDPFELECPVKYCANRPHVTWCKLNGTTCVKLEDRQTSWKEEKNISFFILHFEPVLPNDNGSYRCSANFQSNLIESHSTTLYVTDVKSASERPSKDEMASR
Put plainly: ELISA on coated antigen (sheet label huBTLA-Fc).

Assay [11] concerns the target T7, human LAG-3 (human, UniProt P18627 23-450, limits assumed).
T7 construct: also called hu LAG-3
T7 sequence (looked up): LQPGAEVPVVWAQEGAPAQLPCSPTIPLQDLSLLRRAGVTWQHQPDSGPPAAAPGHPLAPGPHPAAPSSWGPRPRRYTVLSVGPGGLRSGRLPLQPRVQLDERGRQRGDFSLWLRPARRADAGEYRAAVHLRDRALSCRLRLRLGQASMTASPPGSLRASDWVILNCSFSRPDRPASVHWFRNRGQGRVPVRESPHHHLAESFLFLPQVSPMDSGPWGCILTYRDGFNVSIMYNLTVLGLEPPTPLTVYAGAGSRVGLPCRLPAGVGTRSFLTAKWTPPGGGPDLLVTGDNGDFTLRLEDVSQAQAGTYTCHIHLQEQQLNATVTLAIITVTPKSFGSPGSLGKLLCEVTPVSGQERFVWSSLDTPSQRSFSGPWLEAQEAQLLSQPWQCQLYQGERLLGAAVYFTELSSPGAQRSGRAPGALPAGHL
Put plainly: ELISA on coated antigen (sheet label huLAG-3-Fc).

Assay [12] has as its target T2, biotinylated human PD-L1. The assay can be described thus: avidity ELISA: biotinylated human PD-L1 at 0.2 ug/mL on neutravidin, antibody titrated (x axis IgG, nM), anti-human Fc-HRP. As to the method:
Neutravidin was coated onto maxisorp plates at 2 μg/mL in coating buffer and incubated overnight at 4° C. The next day, plates were washed with wash buffer (PBS+0.05% Tween-20), and blocker with casein for 1 hour, at room temperature. Plates were then washed again using wash buffer. […] Plates were then washed again using wash buffer. The different antibodies were then added at various concentrations, and incubated for 1 hour at room temperature. Plates were then washed again using wash buffer. Anti-human Fc-HRP was then added and incubated for 1 hour at room temperature. Plates were then washed again using wash buffer. Finally, TMB was added to develop the ELISA; TMB conversion by HRP was stopped using 1M H-Cl.

Assay [13] has as its target T8, human PD-L2 (human, UniProt Q9BQ51 20-220, limits assumed).
T8 construct: also called hu PD-L2
T8 sequence (looked up): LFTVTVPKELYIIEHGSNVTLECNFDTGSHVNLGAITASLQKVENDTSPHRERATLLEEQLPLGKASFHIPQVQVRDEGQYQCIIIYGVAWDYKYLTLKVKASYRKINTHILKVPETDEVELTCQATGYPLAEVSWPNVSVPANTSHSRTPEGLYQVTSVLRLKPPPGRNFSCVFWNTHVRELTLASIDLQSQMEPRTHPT
The assay can be described thus: ELISA on coated antigen (sheet label huPD-L2-Fc).

Assay [14] deals with PD-L1 (blocking ELISA of Example 13) (Homo sapiens (Human), UniProt Q9NZQ7 19-238). Put plainly: blocking ELISA: antibody pre-incubated with PD-L1, added to coated PD-1 (blocked partner), PD-1-bound PD-L1 detected.
PD-L1 (blocking ELISA of Example 13), sequence (Q9NZQ7 19-238 limits assumed): as the sequence (Q9NZQ7 19-238 limits assumed) above
The target of assay [15] is T9, human TIM-3 (human, UniProt Q8TDQ0 22-200, limits assumed).
T9 construct: also called hu TIM-3
Put plainly: ELISA on coated antigen (sheet label huTIM-3-Fc).

Assay [16] has as its target T10, human ICOS (human, UniProt Q9Y6W8 21-140, limits assumed).
T10 construct: also called hu ICOS
T10 sequence (looked up): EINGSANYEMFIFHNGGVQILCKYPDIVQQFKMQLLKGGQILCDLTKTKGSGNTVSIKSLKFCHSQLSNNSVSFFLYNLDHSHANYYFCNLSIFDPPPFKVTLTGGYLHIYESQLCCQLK
The assay can be described thus: ELISA on coated antigen (sheet label huICOS-Fc).

The target of assay [17] is T11, human CD28 (human, UniProt P10747 19-152, limits assumed).
T11 construct: also called hu CD28
Put plainly: ELISA on coated antigen (sheet label huCD28-Fc).

In assay [18] the target is T1, human PD-L1 coupled to human Fc. Put plainly: ELISA on coated human PD-L1-Fc, Fab detected with anti-human Fab-HRP, absorbance 450-670 nm. As to the method:
(§1) After 90 minutes at room temperature under agitation and extensive washes, a goat anti-human Fab antibody coupled to HRP was added. One hour later, plates were washed and TMB substrate added. The reaction was stopped with 1M HCl and optical density measured at 450 nm with a reference at 670 nm.

The target in assay [19] is T3, murine PD-L1 coupled to human Fc. Put plainly: ELISA on coated murine PD-L1-Fc, Fab detected with anti-human Fab-HRP, absorbance 450-670 nm. As to the method: as §1
Assay [20] concerns the target T12, human PD-L1 (ELISA antigen, construct not stated) (human, UniProt Q9NZQ7 19-238, limits assumed).
T12 construct: The construct is not described; also called hu PD-L1
Put plainly: ELISA of Fab clones with human PD-L1 as antigen.

Here are results for 3 molecules from US20200093922A1 (AGENCY FOR SCIENCE TECHNOLOGY AND RESEARCH, published 2020).

T1 sequence (Q9NZQ7 19-239 limits assumed): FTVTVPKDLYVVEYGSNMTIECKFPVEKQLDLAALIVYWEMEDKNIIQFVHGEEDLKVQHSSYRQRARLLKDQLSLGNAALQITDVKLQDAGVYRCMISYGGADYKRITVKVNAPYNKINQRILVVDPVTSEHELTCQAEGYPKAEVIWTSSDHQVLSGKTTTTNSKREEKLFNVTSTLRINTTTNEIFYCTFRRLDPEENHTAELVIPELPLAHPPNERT
biotinylated murine PD-L1, sequence (Q9EP73 19-238 limits assumed): as the sequence (Q9EP73 19-238 limits assumed) above
T4 sequence (Q15116 25-167 limits assumed): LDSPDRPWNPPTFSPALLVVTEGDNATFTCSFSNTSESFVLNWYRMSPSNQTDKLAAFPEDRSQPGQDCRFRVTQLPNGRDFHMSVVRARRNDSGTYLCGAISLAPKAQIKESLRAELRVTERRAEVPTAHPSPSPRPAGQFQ
T12 sequence (Q9NZQ7 19-238 limits assumed): as the sequence (Q9NZQ7 19-238 limits assumed) above

B1: anti-PD-L1 antibody clone H12, Fab format (Fab, V domains shown)
VH: EVQLVQSGAEVKKPGASVKVSCKASGGTFSSYAISWVRQAPGQGLEWMGRIIPILGIANYAQKFQGRVTITADKSTSTAYMELSSLRSEDTAVYYCARSGHGYSYGAFDYWGQGTL
VL: QSVLTQPPSVSGAPGQRVTISCTGSSSNIGAGYDVHWYQQLPGTAPKLLIYGNSNRPSGVPDRFSGSKSGTSASLAITGLQAEDEADYYCQSYDSSLSGSYVVFGGGTKLTVL
notes: Tested as Fab; the SPR used a crude Fab extract; also called crude H12 Fab extract
A word on the koff: it is a measure of how fast the partners let go of each other. What is called kon is a measure of how fast the partners come together. A lower kon goes with slower complex formation. One may read the Kd as the concentration at which binding is half-saturated. Read a low Kd as tighter binding. For the molecule B1, the koff in [1] stood at 0.000471 s⁻¹; in assay [4] it was 0.00407 s⁻¹. Moreover, the on-rate constant (kon) in [1] is 1.5e+06 M⁻¹ s⁻¹; in assay [4], 1.34e+06 M⁻¹ s⁻¹. Also, the “IC50 (read off the curve)” value in assay [2] is roughly 20 nM; in assay [6] it was roughly 4 nM. In addition, the Kd stood at 3.04 nM in assay [3] and 0.313 nM in assay [5].

B2: anti-PD-L1 antibody H12 (format not stated) (antibody, V domains shown)
VH: B1 VH
VL: B1 VL
In general, EC50 (read off the curve) refers to the concentration at which the effect is half-maximal. Low readings indicate higher potency in that assay, high ones lower potency in that assay. Turning to B2, the binding result in [7], in [9], in [10], in assay [11], in assay [13] and in assay [15] was “no binding” throughout. For the same molecule, the binding result in assay [16] and in assay [17] was “no binding” throughout. In addition, the “EC50 (read off the curve)” value in assay [8] was roughly 0.4 nM; in assay [12], roughly 0.1 nM. Further, in assay [14], the “IC50 (read off the curve)” value was roughly 2 nM.

B3: anti-PD-L1 antibody clone A1, Fab format (Fab, V domains shown)
VH: QVQLQQSGAEVKKPGSSVKVSCKASGGTFSSYAISWVRQAPGQGLEWMGRIIPILGIANYAQKFQGRVTITADKSTSTAYMELSSLRSEDTAVYYCARGGSYGSLYAFDIWGQGTMVTVSS
VL: QSVLTQPPSVSAAPGQRVSISCSGRSSNIASHDVFWYQQLPGTAPKIVMYETNKRPWGIPDRFSGSKSGTSATLDIAGLQTGDEADYYCGAWDSGLTGMLFGGGTKVTVL
notes: From a human phage display library and tested as Fab; the Fab constant domains are not
Consider B3, for which the binding result in assay [2], in assay [18], in assay [19], in [20] and in assay [6] was “binds” in each case.
